Assay results from the supplement of paper PMC9112550, “Optimization of the antimicrobial peptide Bac7 by deep mutational scanning” (BMC Biology, 2022).

system: Escherichia coli TOP10; assay: shrunken log2 fold change of peptide-encoding DNA abundance (4.5 h post-induction vs induction); higher = less antimicrobial activity (less host growth inhibition); conditions: time post-induction: 4.5 h; library: site-saturation at positions 5, 18, 19, 20
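Also: peptides expressed intracellularly from a pBAD plasmid library in pooled LB shake-flask culture, induced with 0.3% L-arabinose, DNA abundance read by NGS, three biological replicates, DESeq2 with apeglm shrinkage.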

| Sequence | shrunken log2 fold change |
| --- | --- |
| RRIRLRPPRLPRPRPRPRDHPRP | 0.0215 |
| RRIRSRPPRLPRPRPRPGDLPRP | -0.091 |
| RRIRIRPPRLPRPRPRPNCNPRP | -0.845 |
| RRIRSRPPRLPRPRPRPEFNPRP | 0.24 |
| RRIRFRPPRLPRPRPRPKPCPRP | 0.3 |
| RRIRHRPPRLPRPRPRPIDYPRP | -0.017 |
| RRIRVRPPRLPRPRPRPCLAPRP | -0.0591 |
| RRIRMRPPRLPRPRPRPRQRPRP | 1.79 |
| RRIRYRPPRLPRPRPRPCWEPRP | -0.288 |
| RRIRSRPPRLPRPRPRPVNVPRP | -0.156 |
| RRIRQRPPRLPRPRPRPMIGPRP | 0.0241 |
| RRIRIRPPRLPRPRPRPFVRPRP | -0.0158 |
| RRIRWRPPRLPRPRPRPYGEPRP | -0.0723 |
| RRIRTRPPRLPRPRPRPGLHPRP | -0.102 |
| RRIRYRPPRLPRPRPRPQQVPRP | -0.0456 |
| RRIRRRPPRLPRPRPRPHFKPRP | -0.0168 |
| RRIRRRPPRLPRPRPRPEGNPRP | -0.0565 |
| RRIRHRPPRLPRPRPRPDTEPRP | -0.172 |
| RRIRWRPPRLPRPRPRPYWFPRP | -0.0484 |
| RRIRSRPPRLPRPRPRPRGRPRP | 0.375 |
| RRIRERPPRLPRPRPRPYRHPRP | -0.0262 |
| RRIRIRPPRLPRPRPRPTTGPRP | -0.228 |
| RRIRIRPPRLPRPRPRPTDPPRP | -0.223 |
| RRIRWRPPRLPRPRPRPGRSPRP | 0.0808 |
| RRIRRRPPRLPRPRPRPAGPPRP | 0.446 |

| Sequence | shrunken log2 fold change |
| --- | --- |
| RRIRCRPPRLPRPRPRPYNKPRP | -1.02 |
| RRIRGRPPRLPRPRPRPQDTPRP | 0.0614 |
| RRIRTRPPRLPRPRPRPHRYPRP | -0.604 |
| RRIRMRPPRLPRPRPRPATKPRP | 0.103 |
| RRIRTRPPRLPRPRPRPMMSPRP | -0.282 |
| RRIRCRPPRLPRPRPRPHVIPRP | -0.245 |
| RRIRKRPPRLPRPRPRPDFKPRP | -0.0323 |
| RRIRPRPPRLPRPRPRPFWDPRP | -0.465 |
| RRIRDRPPRLPRPRPRPDITPRP | 0.282 |
| RRIRGRPPRLPRPRPRPHIGPRP | 0.109 |
| RRIRQRPPRLPRPRPRPLLDPRP | 0.525 |
| RRIRTRPPRLPRPRPRPPRQPRP | 0.52 |
| RRIRQRPPRLPRPRPRPMLQPRP | 0.00663 |
| RRIRDRPPRLPRPRPRPFAQPRP | 0.0821 |
| RRIRVRPPRLPRPRPRPDVNPRP | -0.172 |
| RRIRNRPPRLPRPRPRPALNPRP | 0.0657 |
| RRIRQRPPRLPRPRPRPCNGPRP | -0.0134 |
| RRIRGRPPRLPRPRPRPGQMPRP | 0.483 |
| RRIRDRPPRLPRPRPRPSGDPRP | 0.163 |
| RRIRGRPPRLPRPRPRPGYWPRP | 1.88 |
| RRIRVRPPRLPRPRPRPMSKPRP | -0.0756 |
| RRIRCRPPRLPRPRPRPLHNPRP | -0.264 |
| RRIRHRPPRLPRPRPRPPFCPRP | 0.00537 |
| RRIRKRPPRLPRPRPRPAAHPRP | 0.408 |
| RRIRQRPPRLPRPRPRPKEEPRP | 0.00489 |

| Sequence | shrunken log2 fold change |
| --- | --- |
| RRIRKRPPRLPRPRPRPDSNPRP | 0.0348 |
| RRIRFRPPRLPRPRPRPDVHPRP | -0.179 |
| RRIRWRPPRLPRPRPRPALGPRP | 0.645 |
| RRIRERPPRLPRPRPRPSIWPRP | -0.0411 |
| RRIRGRPPRLPRPRPRPPVAPRP | 1.22 |
| RRIRTRPPRLPRPRPRPMQTPRP | 0.0276 |
| RRIRKRPPRLPRPRPRPTTPPRP | 0.427 |
| RRIRSRPPRLPRPRPRPLNIPRP | -0.422 |
| RRIRKRPPRLPRPRPRPFNNPRP | -0.0235 |
| RRIRSRPPRLPRPRPRPSFFPRP | -0.211 |
| RRIRIRPPRLPRPRPRPTDDPRP | -0.217 |
| RRIRARPPRLPRPRPRPCLFPRP | -0.131 |
| RRIRMRPPRLPRPRPRPQVKPRP | -0.0452 |
| RRIRYRPPRLPRPRPRPPDDPRP | 0.141 |
| RRIRKRPPRLPRPRPRPQKDPRP | 0.00486 |
| RRIRHRPPRLPRPRPRPWWYPRP | -0.0664 |
| RRIRDRPPRLPRPRPRPDIAPRP | 0.209 |
| RRIRHRPPRLPRPRPRPFDSPRP | -0.00149 |
| RRIRNRPPRLPRPRPRPQKMPRP | -0.134 |
| RRIRNRPPRLPRPRPRPVMFPRP | -0.0883 |
| RRIRWRPPRLPRPRPRPSALPRP | 0.678 |
| RRIRPRPPRLPRPRPRPWMWPRP | 0.0296 |
| RRIRKRPPRLPRPRPRPWRLPRP | -0.0807 |
| RRIRPRPPRLPRPRPRPCPSPRP | 0.0668 |
| RRIRIRPPRLPRPRPRPIRGPRP | -0.0199 |

| Sequence | shrunken log2 fold change |
| --- | --- |
| RRIRFRPPRLPRPRPRPWCEPRP | -0.429 |
| RRIRPRPPRLPRPRPRPDMHPRP | -0.042 |
| RRIRERPPRLPRPRPRPMHYPRP | -0.0285 |
| RRIRPRPPRLPRPRPRPCHSPRP | -0.871 |
| RRIRDRPPRLPRPRPRPWEMPRP | 0.335 |
| RRIRLRPPRLPRPRPRPPGSPRP | 0.226 |
| RRIRFRPPRLPRPRPRPGVQPRP | 0.119 |
| RRIRARPPRLPRPRPRPQMRPRP | 0.62 |
| RRIRFRPPRLPRPRPRPKHEPRP | 0.286 |
| RRIRMRPPRLPRPRPRPTGGPRP | 0.454 |
| RRIRERPPRLPRPRPRPSYQPRP | -0.469 |
| RRIRTRPPRLPRPRPRPEIDPRP | 0.0426 |
| RRIRARPPRLPRPRPRPYANPRP | -0.165 |
| RRIRARPPRLPRPRPRPMGVPRP | 0.103 |
| RRIRNRPPRLPRPRPRPNGNPRP | -0.0621 |
| RRIRHRPPRLPRPRPRPEENPRP | 0.0237 |
| RRIRGRPPRLPRPRPRPHTAPRP | 0.149 |
| RRIRWRPPRLPRPRPRPHAIPRP | -0.124 |
| RRIRMRPPRLPRPRPRPDNSPRP | -0.071 |
| RRIRSRPPRLPRPRPRPLVEPRP | 0.28 |
| RRIRSRPPRLPRPRPRPWMLPRP | -0.14 |
| RRIRFRPPRLPRPRPRPCLEPRP | -0.489 |
| RRIRKRPPRLPRPRPRPASEPRP | 0.879 |
| RRIRFRPPRLPRPRPRPPSEPRP | 0.28 |
| RRIRVRPPRLPRPRPRPIMTPRP | -0.359 |

| Sequence | shrunken log2 fold change |
| --- | --- |
| RRIRKRPPRLPRPRPRPPTYPRP | 0.0129 |
| RRIRVRPPRLPRPRPRPIVMPRP | -0.107 |
| RRIRMRPPRLPRPRPRPGYKPRP | -0.517 |
| RRIRCRPPRLPRPRPRPNIKPRP | -0.647 |
| RRIRMRPPRLPRPRPRPMHKPRP | 0.413 |
| RRIRWRPPRLPRPRPRPYALPRP | 0.0509 |
| RRIRIRPPRLPRPRPRPATYPRP | 0.00351 |
| RRIRIRPPRLPRPRPRPEDAPRP | -0.0131 |
| RRIRDRPPRLPRPRPRPTYFPRP | -0.0127 |
| RRIRCRPPRLPRPRPRPIGQPRP | 0.0567 |
| RRIRQRPPRLPRPRPRPNTFPRP | -0.666 |
| RRIRGRPPRLPRPRPRPAELPRP | 0.472 |
| RRIRGRPPRLPRPRPRPHRSPRP | 0.188 |
| RRIRTRPPRLPRPRPRPPEVPRP | 0.0579 |
| RRIRARPPRLPRPRPRPSFQPRP | -0.0185 |
| RRIRSRPPRLPRPRPRPWYKPRP | -0.137 |
| RRIRSRPPRLPRPRPRPETTPRP | 0.461 |
| RRIRFRPPRLPRPRPRPAIMPRP | -0.225 |
| RRIRPRPPRLPRPRPRPAPYPRP | -0.0601 |
| RRIRLRPPRLPRPRPRPCKGPRP | -0.0757 |
| RRIRSRPPRLPRPRPRPQQAPRP | 0.0031 |
| RRIRKRPPRLPRPRPRPINIPRP | -0.0728 |
| RRIRKRPPRLPRPRPRPEVYPRP | -0.0138 |
| RRIRKRPPRLPRPRPRPYLTPRP | -0.413 |
| RRIRPRPPRLPRPRPRPVCNPRP | -0.141 |

| Sequence | shrunken log2 fold change |
| --- | --- |
| RRIRNRPPRLPRPRPRPNAWPRP | 0.000665 |
| RRIRFRPPRLPRPRPRPCPCPRP | -0.21 |
| RRIRQRPPRLPRPRPRPIFCPRP | 0.276 |
| RRIRVRPPRLPRPRPRPRAFPRP | 0.294 |
| RRIRSRPPRLPRPRPRPHKLPRP | -0.228 |
| RRIRQRPPRLPRPRPRPVQEPRP | 0.00554 |
| RRIRSRPPRLPRPRPRPNMWPRP | -0.311 |
| RRIRYRPPRLPRPRPRPFLDPRP | -0.00748 |
| RRIRFRPPRLPRPRPRPIKIPRP | -0.539 |
| RRIRYRPPRLPRPRPRPCKYPRP | -0.627 |
| RRIRNRPPRLPRPRPRPPHYPRP | -0.245 |
| RRIRDRPPRLPRPRPRPPSPPRP | 0.494 |
| RRIRFRPPRLPRPRPRPTGYPRP | 0.0801 |
| RRIRCRPPRLPRPRPRPIVDPRP | 0.0181 |
| RRIRPRPPRLPRPRPRPAILPRP | -0.339 |
| RRIRWRPPRLPRPRPRPMVKPRP | 0.17 |
| RRIRWRPPRLPRPRPRPLWLPRP | 0.202 |
| RRIRSRPPRLPRPRPRPTTAPRP | 0.155 |
| RRIRPRPPRLPRPRPRPYEFPRP | -0.0919 |
| RRIRSRPPRLPRPRPRPGQVPRP | -0.0247 |
| RRIRIRPPRLPRPRPRPNQHPRP | -0.337 |
| RRIRFRPPRLPRPRPRPPANPRP | 0.858 |
| RRIRQRPPRLPRPRPRPMTDPRP | -0.0989 |
| RRIRWRPPRLPRPRPRPCHCPRP | -0.102 |
| RRIRKRPPRLPRPRPRPGLTPRP | 1.08 |
